Experimental data published in PMC4814116, “Design of Novel Relaxase Substrates Based on Rolling Circle Replicases for Bioconjugation to DNA Nanostructures”.

Key:
MobAR (minMobA) = biological target: T1, MobAR (minMobA) (plasmid RSF1010, UniProt P07112 1-186); assay: SDS-PAGE covalent complex; 5 mM Mg2+; Covalent complex: 15 uM oligo, 37 C 1 h, 5 mM MgCl2, 15 uM EDTA; TrwCR 10 mM Tris pH 7.6, 375 mM NaCl; MobAR 25 mM Tris pH 8.0, 225 mM NaCl; TraIR 10 mM Tris pH 7.6, 225 mM NaCl. EMSA: 50 nM oligo, 10 mM Tris pH 7.6, 100 mM NaCl, 1 mM EDTA, RT 30 min. Gel filtration: 100 mM Tris pH 7.6, 200 mM NaCl, EDTA; settings: protein: recombinant; hairpin
T1 sequence: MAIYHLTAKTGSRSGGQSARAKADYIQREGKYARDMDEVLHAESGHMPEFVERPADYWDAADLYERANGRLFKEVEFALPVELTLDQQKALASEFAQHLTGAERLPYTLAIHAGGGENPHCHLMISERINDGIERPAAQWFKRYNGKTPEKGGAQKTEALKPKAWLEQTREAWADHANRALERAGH

[1] = biological target: T2, TrwCR (N-terminal relaxase domain of TrwC) (UniProt Q47673 1-293); assay: as above; settings: protein: recombinant
T2 sequence: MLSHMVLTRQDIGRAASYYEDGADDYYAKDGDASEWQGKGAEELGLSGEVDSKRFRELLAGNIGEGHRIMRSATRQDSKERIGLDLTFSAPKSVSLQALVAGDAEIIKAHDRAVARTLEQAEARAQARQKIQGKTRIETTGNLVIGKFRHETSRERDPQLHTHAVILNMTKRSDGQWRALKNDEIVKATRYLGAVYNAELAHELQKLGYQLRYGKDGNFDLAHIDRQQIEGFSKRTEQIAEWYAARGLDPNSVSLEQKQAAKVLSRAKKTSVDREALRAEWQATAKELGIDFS

[2] = biological target: T2, TrwCR (N-terminal relaxase domain of …); assay: SDS-PAGE covalent complex; 5 mM Mg2+; text says product not detected; Covalent complex: 15 uM oligo, 37 C 1 h, 5 mM MgCl2, 15 uM EDTA; TrwCR 10 mM Tris pH 7.6, 375 mM NaCl; MobAR 25 mM Tris pH 8.0, 225 mM NaCl; TraIR 10 mM Tris pH 7.6, 225 mM NaCl. EMSA: 50 nM oligo, 10 mM Tris pH 7.6, 100 mM NaCl, 1 mM EDTA, RT 30 min. Gel filtration: 100 mM Tris pH 7.6, 200 mM NaCl, EDTA; settings: protein: recombinant; hairpin
[3] = biological target: T2, TrwCR (N-terminal relaxase domain of …); assay: gel filtration; EDTA; Covalent complex: 15 uM oligo, 37 C 1 h, 5 mM MgCl2, 15 uM EDTA; TrwCR 10 mM Tris pH 7.6, 375 mM NaCl; MobAR 25 mM Tris pH 8.0, 225 mM NaCl; TraIR 10 mM Tris pH 7.6, 225 mM NaCl. EMSA: 50 nM oligo, 10 mM Tris pH 7.6, 100 mM NaCl, 1 mM EDTA, RT 30 min. Gel filtration: 100 mM Tris pH 7.6, 200 mM NaCl, EDTA; settings: protein: recombinant; hairpin
[4] = biological target: T2, TrwCR (N-terminal relaxase domain of …); assay: gel filtration; EDTA; slight shift; Covalent complex: 15 uM oligo, 37 C 1 h, 5 mM MgCl2, 15 uM EDTA; TrwCR 10 mM Tris pH 7.6, 375 mM NaCl; MobAR 25 mM Tris pH 8.0, 225 mM NaCl; TraIR 10 mM Tris pH 7.6, 225 mM NaCl. EMSA: 50 nM oligo, 10 mM Tris pH 7.6, 100 mM NaCl, 1 mM EDTA, RT 30 min. Gel filtration: 100 mM Tris pH 7.6, 200 mM NaCl, EDTA; settings: protein: recombinant; hairpin
[5] = biological target: T3, TraIR (N-terminal domain of TraI) (plasmid RP4, UniProt Q00191 1-270); assay: SDS-PAGE covalent complex; 5 mM Mg2+; Covalent complex: 15 uM oligo, 37 C 1 h, 5 mM MgCl2, 15 uM EDTA; TrwCR 10 mM Tris pH 7.6, 375 mM NaCl; MobAR 25 mM Tris pH 8.0, 225 mM NaCl; TraIR 10 mM Tris pH 7.6, 225 mM NaCl. EMSA: 50 nM oligo, 10 mM Tris pH 7.6, 100 mM NaCl, 1 mM EDTA, RT 30 min. Gel filtration: 100 mM Tris pH 7.6, 200 mM NaCl, EDTA; settings: protein: recombinant
T3 sequence: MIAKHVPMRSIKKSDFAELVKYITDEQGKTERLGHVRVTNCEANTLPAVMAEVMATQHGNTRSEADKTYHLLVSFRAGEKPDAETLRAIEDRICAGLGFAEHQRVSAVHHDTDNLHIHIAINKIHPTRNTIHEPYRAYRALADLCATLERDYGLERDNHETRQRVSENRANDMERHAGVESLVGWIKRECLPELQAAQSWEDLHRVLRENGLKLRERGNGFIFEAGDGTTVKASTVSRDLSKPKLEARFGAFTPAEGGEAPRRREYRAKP

In the case of CCGGTTGAAAACCGGTAAGTGCGCCCTCCCC (structured_DNA) [RSF1010 WQ(23+7)], the binding signal (MobAR (minMobA)) is reported as 41.4 ± 1.3 % covalent complex.

GGTGCGTATTGTCTATAGCCCAGATTTA (ssDNA) [R388 W(14+14)] was tested, and the binding signal [1] was 19.8 ± 1.9 % covalent complex.

ATAGCCCAGATCGCACCGAAAGGTGCG (structured_DNA) [R388 R(0+27)] was tested, and the binding signal [2] was 5.8 ± 1.9 % covalent complex.

AACCGGCTAGGTGCGTATTGTCTATAGCCCACGCACCTAGCCGGTT (structured_DNA) [R388 H(23+23)]: binds [3].

GGTGCGTATTGTCTATCGCACC (structured_DNA) [R388 H(14+8)] showed a binding signal ([1]; hairpin) of 22.4 ± 5.7 % covalent complex.

With GGTGCGTATTGTCTATAGCCCAGATCGCACC (structured_DNA) [R388 H(14+17)] the binding signal ([1]; hairpin) was 22.3 ± 6.1 % covalent complex.

Binder GGTGCGTATTGTCTATAGCCGCGCACC (structured_DNA) [R388 H(14+13)] has a binding signal ([1]; hairpin) of 23.3 ± 2.9 % covalent complex.

TATAGCCCAGATCGCACCGAAAGGTGCG (structured_DNA) [R388 R(1+27)] showed a binding signal [2] of 9.9 ± 3.2 % covalent complex.

Work on GTCTATAGCCCAGATCGCACCGAAAGGTGCG (structured_DNA) [R388 R(4+27)] yielded a binding signal [2] of 9.9 ± 3.9 % covalent complex.

For TATTGTCTATAGCCCAGATCGCACCGAAAGGTGCG (structured_DNA) [R388 R(8+27)], the binding signal ([1]; hairpin) was 44.7 ± 1 % covalent complex.

ATTGTCTATAGCCCAGATCGCACCGAAAGGTGCG (structured_DNA) [R388 R(7+27)]: binds [4].

CCGGTGCGTATTGTCTATAGCCCGCGCACCGG (structured_DNA) [R388 H(16+16)]: binds [3].

In the case of GAGAAACCGGTAAGTGCGCCCTCCCGATCAGTTTCTC (structured_DNA) [RSF1010 HQ(18+19)], the binding signal (MobAR (minMobA)) is reported as 9 ± 3.1 % covalent complex.

Work on ACTTCACCTATCCTGCCCGGC (ssDNA) [RP4 WP(15+6)] yielded a binding signal [5] of 24.4 ± 5.7 % covalent complex.

With GCGCACCGAAAGGTGCGTATTGTCTATAGCCCAGATTTAAGGA (structured_DNA) [R388 W(25+18)] the binding signal ([1]; hairpin) was 24.7 ± 2.1 % covalent complex.

Binder GTGAAGGAAACTTCACCTATCCTGCCCGGCTG (structured_DNA) [RP4 WP(24+8)] has a binding signal ([5]; hairpin) of 21.3 ± 0.9 % covalent complex.

Binder TATTGTCTATAGCCCACGCACC (ssDNA) [R388 R(8+14)] has a binding signal [1] of 30.2 ± 4.9 % covalent complex.

AACCGGCTAGGTGCGTATTGTCTATAGCCCAGATCGCACCTAGCCGGTT (structured_DNA) [R388 H(23+26)]: binds [3].

Work on CTATCCTGCCCGGCTGGTGAAGGAAACTTCAC (structured_DNA) [RP4 RP(8+24)] yielded a binding signal ([5]; hairpin) of 23.7 ± 2.7 % covalent complex.

TATTGTCTATAGCCCACGCACCGAAAGGTGCG (structured_DNA) [R388 R(8+24)] showed a binding signal ([1]; hairpin) of 45.3 ± 6.6 % covalent complex.

Binder GGTGCGTATTGTCTATAGCGCGCACC (structured_DNA) [R388 H(14+12)] has a binding signal ([1]; hairpin) of 25.5 ± 3.1 % covalent complex.

Binder GGTGCGTATTGTCTATAGCCCGCGCACC (structured_DNA) [R388 H(14+14)] has a binding signal ([1]; hairpin) of 26.8 ± 4.7 % covalent complex.

GGTGCGTATTGTCTATAGCCCAGCGCACC (structured_DNA) [R388 H(14+15)] showed a binding signal ([1]; hairpin) of 19.6 ± 1.4 % covalent complex.

Binder GGTGCGTATTGTCTATAGCGCACC (structured_DNA) [R388 H(14+10)] has a binding signal ([1]; hairpin) of 23 ± 4.7 % covalent complex.

Work on CAGTTTCTCGAAGAGAAACCGGTAAGTGCGCCCTCCC (structured_DNA) [RSF1010 WQ(30+7)] yielded a binding signal (MobAR (minMobA)) of 43.9 ± 1.4 % covalent complex.

GAGAAACCGGTAAGTGCGCCCTCCCCAGTTTCTC (structured_DNA) [RSF1010 HQ(18+16)] showed a binding signal (MobAR (minMobA)) of 13.1 ± 4.2 % covalent complex.
